target: human CCR6 N-terminal extracellular domain Fc fusion protein NthCCR6-IgG4Fc (human); assay: SPR, Biacore T100; NthCCR6-IgG4Fc captured on anti-human IgG CM5 chip, antibody injected
Sequence (chain, as listed by the source limits assumed): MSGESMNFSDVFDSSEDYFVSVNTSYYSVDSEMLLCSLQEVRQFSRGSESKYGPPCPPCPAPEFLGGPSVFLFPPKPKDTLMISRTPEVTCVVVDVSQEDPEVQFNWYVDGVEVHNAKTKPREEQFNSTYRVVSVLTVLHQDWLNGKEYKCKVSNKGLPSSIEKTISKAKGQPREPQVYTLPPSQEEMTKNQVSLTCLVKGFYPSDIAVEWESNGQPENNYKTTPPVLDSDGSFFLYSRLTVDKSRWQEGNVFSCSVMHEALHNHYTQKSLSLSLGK

| Kd [nM] | Substance |
| --- | --- |
| 4.97 | commercially available anti-human CCR6 monoclonal antibody R6H1 (eBioscience) |
| 70.9 | human CCR6 monoclonal antibody (clone 53103) (R&D Systems) |
| 20 | commercially available anti-human CCR6 monoclonal antibody 11A9 (BD Pharmingen) |

Source: WO2013005649A1
